According to patent publication US20220389077A1, “ALLOGENEIC CELL COMPOSITIONS AND METHODS OF USE” (Poseida Therapeutics, Inc., priority 2018, published 2022):

B1: CD2z CSR: chimeric stimulatory receptor: CD2 signal peptide, extracellular, transmembrane and cytoplasmic domains with CD3z intracellular domain (SEQ ID NO: 17062) (protein)
chain: MSFPCKFVASFLLIFNVSSKGAVSKEITNALETWGALGQDINLDIPSFQMSDDIDDIKWEKTSDKKKIAQFRKEKETFKEKDTYKLFKNGTLKIKHLKTDDQDIYKVSIYDTKGKNVLEKIFDLKIQERVSKPKISWTCINTTLTCEVMNGTDPELNLYQDGKHLKLSQRVITHKWTTSLSAKFKCTAGNKVSKESSVEPVSCPEKGLDIYLIIGICGGGSLLMVFVALLVFYITKRKKQRSRRNDEELETRAHRVATEERGRKPHQIPASTPQNPATSQHPPPPPGHRSQAPSHRPPPPGHRVQHQPQKRPPAPSGTQVHQQKGPPLPRPRVQPKPPHGAAENSLSPSSNRVKFSRSADAPAYKQGQNQLYNELNLGRREEYDVLDKRRGRDPEMGGKPRRKNPQEGLYNELQKDKMAEAYSEIGMKGERRRGKGHDGLYQGLSTATKDTYDALHMQALPPR

Experiments:
[1] = test system: Lag3, PD1, and Tim3; assay: Flow cytometry for exhaustion molecules; assay type: cell-based, human; conditions: compared to mock T cells
Text: Mock (WT T cells), WT CAR-T cells, DKO CAR-T cells, DKO CAR-T cells+CD2z, and DKO CAR-T cells+CD28z were examined by flow cytometry for the expression of important exhaustion molecules Lag3, PD1, and Tim3. […] This phenotype may have a negative impact on the in vivo functionality of these CAR T cells since they appear to be more exhausted.

[2] = test system: Pan T cells; assay: Surface expression of CSR and cellular activation (FSC-A, CD69) after mRNA electroporation of T cells; assay type: cell-based, human; conditions: for cellular activation (FSC-A, CD69): absence of exogenous stimulation; for surface expression by flow cytometry: two days after electroporation of 10 μg mRNA
Protocol: Pan T cells from normal blood donors were stimulated with anti-CD3/anti-CD28 beads in standard T cell culture media, then rested. These cells were then electroporated (BTX ECM 830 electroporator @ 500V for 700 μs) with 10 μg of mRNA encoding either CD28 CSR, CD2 CSR, or wild-type CD19 control. Two days later the electroporated cells were examined by flow cytometry for surface-expression of each molecule and data are shown as stacked histograms. In addition, cell size (FSC-A) and CD69 expression was evaluated as a possible indication of cellular activation above the Mock electroporated control cells.

[3] = test system: CD45RA, CD45RO, and CD62L; assay: Memory phenotype by surface CD45RA, CD45RO and CD62L staining; assay type: cell-based, human; conditions: WT and DKO CAR-T cells
Text: WT CAR-T cells, DKO CAR-T cells, DKO CAR-T cells+CD2z, and DKO CAR-T cells+CD28z were stained for expression of surface CD45RA, CD45RO, and CD62L to define Tscm, Tcm, Tem, and Teff cells; Tscm (CD45RA^+CD45RO^−CD62L^+), Tcm (CD45RA^−CD45RO^+CD62L^+), Tem (CD45RA^−CD45RO^+CD62L^−), Teff (CD45RA^+CD45RO^−CD62L^−). […] This phenotype may have a negative impact on the in vivo functionality of these CAR T cells since they appear to be more differentiated.
Allo CAR-T cells with no CSR and Allo CAR-Ts with CSR that was delivered either stably or transiently were stained for expression of surface CD45RA, CD45RO, and CD62L to define Tscm, Tcm, Tem, and Teff cells; Tscm (CD45RA^+CD45RO^−CD62L), Tcm (CD45RA^−CD45RO^+CD62L^+), Tem (CD45RA^−CD45RO^+CD62L^−), Teff ([…]CD62L^−). All samples were performed in duplicate, and data is shown in bar graph where error bars represent standard deviation.

[4] = test system: eK562-Luc.BCMA; assay: Luciferase killing assay, 48 hour co-culture; assay type: cell-based; conditions: 10:1, 3:1, 1:1 E:T
Protocol: After secondary expansion, cells (Mock (WT T cells), WT CAR-T cells, DKO CAR-T cells, DKO CAR-T cells+CD2z CSR, and DKO CAR-T cells+CD28z CSR) were co-cultured with engineered K562-BCMA-Luciferase (eK562-Luc.BCMA) or negative control line K562-PSMA-Luciferase (eK562-Luc.PSMA) for 48 hours at 10:1, 3:1, or 1:1 E:T ratios. Luciferase signal was measured to determine cytotoxicity. Killing of eK562-Luc.PSMA is shown in dotted lines, while killing of eK562-Luc.BCMA is shown in solid lines. All CAR^+ T cells expressed an anti-BCMA specific CAR.
CSRs were delivered to CAR-T cells either transiently by mRNA or stably by piggyBac®. Pan T cells isolated from the blood of a normal donor were genetically modified using the piggyBac® DNA modification system and the standard Poseida process. Cells were co-electroporated in a single reaction with mRNA encoding the Super piggyBac™ transposase enzyme (SPB), a transposon encoding a BCMA CAR and selection gene, along with an additional mRNA encoding a CSR (either CD28z or CD2z; resulting in transient expression), or, with a transposon encoding a BCMA CAR, selection gene and a CSR (either CD28z or CD2z; resulting in stable expression). The cells were subsequently stimulated with agonist mAbs anti-CD2, anti-CD3 and anti-CD28, and were later selected for genetic modification over the course of a 19 day culture period. At the end of the initial culture period all T cells expressed the CAR, indicating successful selection for genetically-modified cells (data not shown). To assess CAR-T cell ability to kill, cells were co-cultured with engineered K562-BCMA-Luciferase (eK562-Luc.BCMA) or negative control line K562-Luciferase (eK562-Luc) for 48 hours at 10:1, 3:1, or 1:1 E:T ratios. Luciferase signal was measured to determine cytotoxicity. Killing of eK562-Luc is shown in bar graph on left, while killing of eK562-Luc.BCMA is shown in bar graph on right.

[5] = CAR-T cells with transient (mRNA) or stable (piggyBac) CSR

Molecule | expression of exhaustion molecules Lag3, PD1, and Tim3 [1] | cellular activation (FSC-A, CD69) [2] | surface expression by flow cytometry [2] | memory phenotype (Tscm, Tcm, Tem, Teff) [3] | in vitro cytotoxicity (luciferase signal) [4, 5] | in vitro cytotoxicity (luciferase signal) ([4]; DKO CAR-T cells)
CD28z CSR: chimeric stimulatory receptor: CD28 signal peptide, extracellular, transmembrane and cytoplasmic domains with CD3z intracellular domain (SEQ ID NO: 17060) | significant upregulation of exhaustion markers Lag3, PD1, and Tim3 | did not intrinsically activate the cells | Increased surface expression | significantly more differentiated, favoring Tcm and Tem cells | not significantly affected | not significantly affected
B1 | little to no expression of exhaustion molecules | did not intrinsically activate the cells | Increased surface expression | comprised predominantly of exceptionally high levels of favorable Tscm and Tcm cells | not significantly affected | not significantly affected
